This note sets out measurements from US6436666.

The target in series [1] is pro A-NS5 target polypeptide of Examples 3 and 4 (protein A anchor region, linker, protease target site of HCV NS5A/5B, linker, FLAG epitope tag region) (hepatitis C virus). The series is described as follows: ELISA: pro A-NS5 on human IgG plate, no protease, anti-FLAG then goat anti-mouse conjugate. A general note: In an ELISA, binding on a coated surface is turned into a signal by an enzyme label.

The target of series [2] is Substrate: protein A-G-G-G-G-7aa-NS4B/5A cleavage site-8aa-FLAG-G-FLAG-G-FLAG (Example 6) (hepatitis C virus). The series is described as follows: time-resolved fluorometry: 20 nM substrate captured on IgG coated Immulon-4 plate, detected with Eu^3+-anti-FLAG MoAb.
For series [3], the target named is pro A-NS5, polypeptide substrate of HCV protease (Example 1 construct: Protein A - NS5A/5B protease target site - three FLAG tags) (hepatitis C virus). The series is described as follows: ELISA: pro A-NS5 on IgG plate, no protease, anti-FLAG then goat anti-mouse-HRP; Exp. 1.
For series [4] the target is unchanged. The series is described as follows: ELISA: pro A-NS5 on IgG plate, no protease, anti-FLAG then goat anti-mouse-HRP; Exp. 2.
Series [5] shares this target. Put plainly: ELISA: proA-NS5 2 µg/ml captured on IgG plate, no protease, anti-FLAG then goat anti-mouse-HRP, OPD.
For series [6] the target is unchanged. The series is described as follows: ELISA: pro A-NS5 10 µg/ml captured on IgG plate, no protease, anti-FLAG then goat anti-mouse-HRP, OPD.
In series [7] the target is Peptide 4A, a co-factor of the NS3 HCV protease (Example 2).

Where “and” joins values, the source holds several entries; their conditions need not be identical. Equal entries are not always repeated.

For “Mouse monoclonal anti-FLAG M2 (IBI, IBI13010/6j0612) (antibody)”, the OD w/o DMSO in series [1] is 2.6 OD.

Consider “Eu^3+-anti-FLAG MoAb (Sigma via Kodak, cat#IB13026, lot# 710413) (antibody)”, for which the Eu^3+ counts in series [2] is 1.31e+06 Eu^3+ counts and 1.26e+06 Eu^3+ counts.

For “monoclonal anti-FLAG mouse antibody (available from Kodak)”, the OD is 1.23 OD in series [3], 0.93 OD in series [4], 0.77 OD in series [5] and 1.21 OD in series [6].

B1: protease 1: Ni-13 (F21) 20 µM, preparation made at Chiron (protein)
chain: APITAYAQQTRGLLGCIITSLTGRDKNQVEGEVQIVSTAAQTFLATCINGVCWTVYHGAGTRTIASPKGPVIQMYTNVDQDLVGWPAPQGSRSLTPCTCGSSDLYLVTRHADVIPVRRRGDSRGSLLSPRPISYLKGSSGGPLLCPAGHAVGIFRAAVCTRGVAKAVDFIPVENLETTMRS
For the molecule B1, the “cleavage of the NS4B/5A substrate by the protease with and without the co-factor peptide” value in series [7] is “These data demonstrates the operability of the screening assay using HCV NS4B/5A protease cleavage site with co-factor peptide 4A”.
